Sequences and labels used below:
B1: Anti-NGF antibody of Table 3, S434K (antibody)
heavy: DVQLVESGGDLVKPGGSLRLTCVASGFTYSNYWMHWVRQAPGKGLQWVARIDPYGGGTKHNEKFKRRFTISRDNAKNTLYLQMNSLKTEDTATYYCVRSGYDYYFDVWGQGTLVTVSSASTTAPSVFPLAPSCGTTSGATVALACLVLGYFPEPVTVSWNSGALTSGVHTFPAVLQASGLYSLSSMVTVPSSRWLSDTFTCNVAHPPSNTKVDKTVRKTDHPPGPKPCDCPKCPPPEMLGGPSIFIFPPKPKDTLSISRTPEVTCLVVDLGPDDSDVQITWFVDNTQVYTAKTSPREEQFNSTYRVVSVLPILHQDWLKGKEFKCKVNSKSLPSPIERTISKAKGQPHEPQVYVLPPAQEELSRNKVSVTCLIKSFHPPDIAVEWEITGQPEPENNYRTTPPQLDSDGTYFVYSKLSVDRSHWQRGNTYTCSVSHEALHKHHTQKSLTQSPGK
light: EIQMTQSPSSLSASPGDRVTITCRASENIYSFLAWYQQKPGKVPKLLIYNANTLAEGVPSRFSGSGSGTDFTLTISSLEPEDAATYYCQHHFGTPFTFGSGTKLEIKRSDAQPSVFLFQPSLDELHTGSASIVCILNDFYPKEVNVKWKVDGVVQNKGIQESTTEQNSKDSTYSLSSTLTMSSTEYQSHEKFSCEVTHKSLASTLVKSFQRSECQRE
B2: Anti-NGF antibody of Table 3, S434Q (antibody)
heavy: B1 heavy with K440Q
light: B1 light
B3: Anti-NGF antibody of Table 3, S434N (antibody)
heavy: B1 heavy with K440N
light: B1 light
B4: Anti-NGF antibody of Table 3, S434L (antibody)
heavy: B1 heavy with K440L
light: B1 light
B5: Anti-NGF antibody of Table 3, S434P (antibody)
heavy: B1 heavy with K440P
light: B1 light
B6: Anti-NGF antibody of Table 3, S434M (antibody)
heavy: B1 heavy with K440M
light: B1 light
B7: mAb4 (felinized anti-IL31 antibody ZTS-5864) S428M and S434W, feline IgG1a (antibody)
heavy: DVQLVESGGDLVKPGGSLRLTCVASGFTFSDYAMSWVRQAPGKGLQWVAGIDSVGSGTSYADSVKGRFTISRDNAKNTLYLQMNSLKTEDTATYYCASGFPGSFEHWGQGTLVTVSSASTTAPSVFPLAPSCGTTSGATVALACLVLGYFPEPVTVSWNSGALTSGVHTFPAVLQASGLYSLSSMVTVPSSRWLSDTFTCNVAHPPSNTKVDKTVRKTDHPPGPKPCDCPKCPPPEMLGGPSIFIFPPKPKDTLSISRTPEVTCLVVDLGPDDSDVQITWFVDNTQVYTAKTSPREEQFNSTYRVVSVLPILHQDWLKGKEFKCKVNSKSLPSPIERTISKAKGQPHEPQVYVLPPAQEELSRNKVSVTCLIKSFHPPDIAVEWEITGQPEPENNYRTTPPQLDSDGTYFVYSKLSVDRSHWQRGNTYTCSVMHEALHWHHTQKSLTQSPGK
VL: QSVLTQPSSVSGTLGQRITISCTGSSSNIGSGYVGWYQQVPGMGPKTVIYYNSDRPSGVPDRFSGSKSGSSGTLTITGLQAEDEADYYCSVYDRTFNAVFGGGT
notes: also called mAb4 ID No. 36
B8: mAb4 (felinized anti-IL31 antibody ZTS-5864) S428Y and S434W, feline IgG1a (antibody)
heavy: B7 heavy with M433Y
VL: B7 VL
notes: also called mAb4 ID No. 31
B9: mAb4 (felinized anti-IL31 antibody ZTS-5864) S428M and S434F, feline IgG1a (antibody)
heavy: B7 heavy with W439F
VL: B7 VL
notes: also called mAb4 ID No. 33
B10: mAb4 (felinized anti-IL31 antibody ZTS-5864) S428W, feline IgG1a (antibody)
heavy: B7 heavy with M433W, W439S
VL: B7 VL
notes: also called mAb4 ID No. 19
B11: mAb4 (felinized anti-IL31 antibody ZTS-5864) S428R, feline IgG1a (antibody)
heavy: B7 heavy with M433R, W439S
VL: B7 VL
notes: also called mAb4 ID No. 16
B12: mAb4 (felinized anti-IL31 antibody ZTS-5864) S428T, feline IgG1a (antibody)
heavy: B7 heavy with M433T, W439S
VL: B7 VL
notes: also called mAb4 ID No. 17
B13: mAb4 (felinized anti-IL31 antibody ZTS-5864) S428Q, feline IgG1a (antibody)
heavy: B7 heavy with M433Q, W439S
VL: B7 VL
notes: also called mAb4 ID No. 15
B14: mAb4 (felinized anti-IL31 antibody ZTS-5864) S428P, feline IgG1a (antibody)
heavy: B7 heavy with M433P, W439S
VL: B7 VL
notes: also called mAb4 ID No. 14
B15: mAb1 (felinized anti-IL31 antibody) S428L, feline IgG1a (antibody, part only; not given: Anti-IL31 heavy and light variable domains, part only)
heavy, part: ASTTAPSVFPLAPSCGTTSGATVALACLVLGYFPEPVTVSWNSGALTSGVHTFPAVLQASGLYSLSSMVTVPSSRWLSDTFTCNVAHPPSNTKVDKTVRKTDHPPGPKPCDCPKCPPPEMLGGPSIFIFPPKPKDTLSISRTPEVTCLVVDLGPDDSDVQITWFVDNTQVYTAKTSPREEQFNSTYRVVSVLPILHQDWLKGKEFKCKVNSKSLPSPIERTISKAKGQPHEPQVYVLPPAQEELSRNKVSVTCLIKSFHPPDIAVEWEITGQPEPENNYRTTPPQLDSDGTYFVYSKLSVDRSHWQRGNTYTCSVLHEALHSHHTQKSLTQSPGK
B16: mAb4 (felinized anti-IL31 antibody ZTS-5864) WT, feline IgG1a (antibody)
heavy: B7 heavy with M433S, W439S
VL: B7 VL
notes: The same holds for all mAb4 variants; also called mAb4 ID No. 1
B17: mAb4 (felinized anti-IL31 antibody ZTS-5864) S434H, feline IgG1a (antibody)
heavy: B7 heavy with M433S, W439H
VL: B7 VL
notes: also called mAb4 ID No. 00
B18: mAb4 (felinized anti-IL31 antibody ZTS-5864) S428L, feline IgG1a (antibody)
heavy: B7 heavy with M433L, W439S
VL: B7 VL
notes: also called mAb4 ID No. 11
B19: mAb1 (felinized anti-IL31 antibody) wild-type, feline IgG1a (antibody, part only; not given: Anti-IL31 heavy and light variable domains, part only)
heavy, part: B15 heavy, part with L316S

Positions count from the first letter of the chain named. In names and notes the source's numbering stands.

Feline FcRn (complex of FcRn-α subunit and β-microglobulin, C-terminal His tag) (feline), sequence (chain, as listed by the source, chain 1 of 2): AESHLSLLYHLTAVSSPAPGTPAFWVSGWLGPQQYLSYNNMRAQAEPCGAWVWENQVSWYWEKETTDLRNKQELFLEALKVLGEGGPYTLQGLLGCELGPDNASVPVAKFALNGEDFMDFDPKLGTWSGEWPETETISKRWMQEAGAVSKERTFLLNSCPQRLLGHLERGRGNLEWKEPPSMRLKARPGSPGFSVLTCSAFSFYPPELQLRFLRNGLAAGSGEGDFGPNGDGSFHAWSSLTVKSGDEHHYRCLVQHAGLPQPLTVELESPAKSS
Feline FcRn (complex of FcRn-α subunit and β-microglobulin, C-terminal His tag) (feline), sequence (Q5MGS7 21-118, chain 2 of 2): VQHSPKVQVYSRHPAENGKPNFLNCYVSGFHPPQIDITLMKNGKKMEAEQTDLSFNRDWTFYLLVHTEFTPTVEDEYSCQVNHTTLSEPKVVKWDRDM

For one experiment, the target named is T1, Feline FcRn (complex of FcRn-α subunit and β-microglobulin, C-terminal His tag) (feline, UniProt A0ABI7ZNY9 23-296; Q5MGS7 21-118).
T1 construct: treated here as one molecule
As to the kind of experiment: SPR Biacore, FcRn amine-coupled on CM5, pH 6. The protocol:
(§1) Feline FcRn was isolated, prepared and mutant Fc IgGs were assayed against feline FcRn according to Strietzelg et. al. Standard RACE PCR was used to amplify feline FcRn-α subunit and β-microglobulin. FcRn-α subunit and β-microglobulin were co-transfected into HEK 293 cells and the FcRn complex was purified by IMAC affinity purification via the c-terminal His tag. KD's were measured by Biacore 3000 or Biacore T200 (GE Healthcare, Pittsburgh, PA, USA) using a CM5 sensor chip.
(§2) FcRn was immobilized on the surface of the sensor using the standard amine immobilization method to reach the desired surface density. HBS-EP was used as the immobilization running buffer and 10 mM MES; 150 mM NaCl; 0.005% Tween20; 0.5 mg/mL BSA; pH6 and pH7.2 and PBS; 0.005% Tween20; 0.5 mg/mL BSA; pH7.4 were used for method running buffers and titrations. Fc mutant IgGs were flowed over receptor surfaces and affinity was determined using Scrubber2 software analysis (BioLogic Software Pty, Ltd., Campbell, Australia) or T200 evaluation software (Table 2). Blank runs containing buffer only were subtracted out from all runs. Flow cells were regenerated using 50 mM Tris pH8. Runs were performed at 15° C.
Background: SPR reads the build-up and loss of mass on a sensor chip optically.
Regarding B1, binding was put at a Kd of 6.76 nM. As to B2, the Kd (as a rule, the equilibrium constant for the complex coming apart) came out at 4.8 nM.

B3 yielded an equilibrium dissociation constant (Kd) of 6.94 nM. The same measure, in the same setting: then B4, with 8.67 nM; and B5, with 5.64 nM; and B6, with 2.8 nM.

A further experiment concerns the target T1, Feline FcRn (complex of FcRn-α subunit …). As to the kind of experiment: SPR Biacore, biotin-FcRn on SA chip, pH 6. The essentials: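 Feline FcRn α/β-microglobulin complex, expressed in HEK 293 cells, His-tag purified and BirA-biotinylated, was captured on an SA chip. Fc mutant IgGs flowed over at 15° C in MES/NaCl/Tween20/BSA at pH 6, or HBS-P/BSA at pH 7.4. KD from buffer-blank-subtracted runs; regeneration with 50 mM Tris pH 8 or 9.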
B7: the equilibrium dissociation constant (Kd) is 6.83 nM. B8: binding was put at a Kd of 7.8 nM.

Regarding B9, binding was put at a Kd of 4.29 nM. Compared with the last molecule, the Kd is about 1.8-fold lower.

For a further experiment the target is unchanged. Description: SPR Biacore, biotin-FcRn on SA chip, pH 7.4. As for the experimental part: (§3) Feline FcRn was isolated, prepared and mutant Fc IgGs were assayed against feline FcRn according to Strietzel et. al., discussed above. Standard PCR was used to amplify feline FcRn-α subunit and β-microglobulin. FcRn-α subunit and β-microglobulin were co-transfected into HEK 293 cells and the FcRn complex was purified by IMAC affinity purification via the c-terminal His tag. FcRn complex was biotin labeled through BirA enzymatic biotinylatoin reaction. KD's were measured by Biacore T200 (GE Healthcare, Pittsburgh, PA, USA) or Biacore 8K (Cytiva, Marlborough, MA, USA) using a SA sensor chip.
(§4) FcRn was captured on the surface of the sensor using a modified SA capture method. 10 mM MES; 150 mM NaCl; 0.005% Tween20; 0.5 mg/mL BSA; pH6 was used as capture, method running buffer and titrations. 1×HBS-P, 0.5 mg/mL BSA; pH7.4 was also used for method running buffer and titrations. Fc mutant IgGs were flowed over receptor surfaces and affinity was determined using T200 evaluation software or Biacore Insight Evaluation software. Blank runs containing buffer only were subtracted out from all runs. Flow cells were regenerated using 50 mM Tris pH8 or pH9. Runs were performed at 15° C.
For the molecule B10, the binding result is given as “no binding”. B7 registered a dissociation constant (Kd) of 5010 nM.

With B8, the equilibrium dissociation constant (Kd) worked out at 431 nM.

In the case of B11, the binding result is recorded as “no binding”. On to B12, for which the binding result was “no binding”. The same measure, in the same setting: as for B13, the entry is “no binding”. B9 returned a dissociation constant Kd of 4010 nM. This lies in the single-digit micromolar range. Consider B14, for which the binding result is listed as “no binding”.

Another experiment concerns the target Feline FcRn (complex of FcRn-α subunit and β-microglobulin, C-terminal His tag) (feline). Description: SPR Biacore, FcRn amine-coupled on CM5, pH 7.2.
For the molecule B15, the Kd amounted to 180 nM.

The target in another experiment is T1, Feline FcRn (complex of FcRn-α subunit …). Description: SPR Biacore, FcRn amine-coupled on CM5, pH 7.2. As for the experimental part: as §1, §2
In turn, B1 came in with a Kd of 5.06 nM.

For B2, the Kd is 0.0801 nM.

Take B3: the equilibrium dissociation constant (Kd) was 0.00847 nM.

B4 displayed a Kd of 6.57 nM. On the same count and under the same terms, as for B5, the figure is 0.0157 nM; as for B6, 1.92 nM.

For another experiment the target is unchanged. Description: SPR Biacore, biotin-FcRn on SA chip, pH 6; pH 6. The protocol:
as §3, §4
B16 registered a dissociation constant Kd of 32 nM. In turn, B17 yielded an equilibrium dissociation constant (Kd) of 4.88 nM.

The molecule B18 yielded a dissociation constant Kd of 15.5 nM.

Another experiment concerns the target Feline FcRn (complex of FcRn-α subunit and β-microglobulin, C-terminal His tag) (feline). As to the kind of experiment: SPR Biacore, FcRn amine-coupled on CM5, pH 6.
B19 returned a dissociation constant (Kd) of 12.1 nM. The same measure, in the same setting: then B15, with 3.77 nM.

For a further experiment, the target named is IL31 (target of felinized anti-IL31 antibody mAb1). Description: SPR Biacore T200, target amine-coupled, 15 C.
In turn, B19 showed an equilibrium dissociation constant (Kd) of 0.0223 nM.

Molecule B15 returned a dissociation constant Kd of 0.0228 nM. This Kd and that of the molecule before are within 1.5-fold of each other.

Source of the values: patent US20260193335A1 (ZOETIS SERVICES, published 2026).
